{"source": "paper PMC9005958", "test_system": "T1, GST-rCtrA (Ehrlichia chaffeensis), ORF:1c7d897d", "T1 sequence": "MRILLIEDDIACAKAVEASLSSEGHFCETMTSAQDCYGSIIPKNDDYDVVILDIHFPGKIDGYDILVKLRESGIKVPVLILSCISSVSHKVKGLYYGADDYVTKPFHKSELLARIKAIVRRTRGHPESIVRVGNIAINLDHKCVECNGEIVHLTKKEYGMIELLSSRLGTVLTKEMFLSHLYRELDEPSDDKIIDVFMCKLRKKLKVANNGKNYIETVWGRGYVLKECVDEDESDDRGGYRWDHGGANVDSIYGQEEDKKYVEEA", "assay": "EMSA", "data": [{"sequence": "ATATAACCTAATAGTGACAAATAAATTAACAATAGTAGAAGTGTCATATAAAAGCAAGTCAGAATATAAATTTTTGTATAAAATATCGGTAACTTTTGTAAGGAAAATTTAATATATTACGTCAGGTAAGTAATAGCAAAAAAACTGGTTAAGTATAGTATCATGTGTAAAGGTGAGAAAAACAGCACTTATAAACTAGTCCCCCCCCCCCCCCTCTTATTGCTACATTCTTTTGCCACTATTTTTATTTACCTGCAGCA (double strand) [p28 promoter]", "values": [{"measurement": "binding", "result": "no binding"}]}]}
